Source: the domain aggregation screens of Martell et al. (2025)
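Note: 20 min heating vs room temperature control held 20 min.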

Test: soluble fraction after stress (log2 fold change); higher = more stays soluble; pooled small domains, quantitative proteomics
Conditions: stress: 75 degC
In the case of “HMSIYMNIYNEFKKYIIANVYKYDDKLPSVRSIALEYGINPNTVQRAFQLLEDEGYIKTISKKGVYVNYR”, the “soluble fraction (log2)” value is reported as -0.745.
For “HMSKAYLSVESNISGARVFVDGQKEGTTPLSDVLLSAGEHLILVKKQGYETYQKRVRFQKGRSMSLYVDLS”, the “soluble fraction (log2)” value was -0.0864.
For “HMSKDQKKFFIEIVSIRGFGSQIGISILNKLSIPQIINAIKTQNKKEISSIPGIGQKMTERLILELNNKFK”, the “soluble fraction (log2)” value was -0.183.
In the case of “HMSKININTITESELKELPISTVKQKAIQDYLIDRGFISNIYDLLDIKEITSDDVSLLKKVVNVKLPY”, the “soluble fraction (log2)” value is reported as -0.489.
For “HMSKIVPVAYSQFLKDVKNGNVSQVEIRGNNIKGINNNGSSFSTYAPNDLSLIDKLEKSNVEIIVMPLE”, the “soluble fraction (log2)” value was -0.368.
For “HMSKKLLVLQTSDDAKAKDVLSQNGYQLDDGDKLSIIETEQTKMADVIKLLSDNAIDIEDVQHVH”, the “soluble fraction (log2)” value was 0.14.
With “HMSKLQETEIPVALEVEKIPGLSNELKQKLLKIKPQTIGQASRISGITPAAISILMIYIKKNESISAVK” the “soluble fraction (log2)” value was -1.9.
For “HMSKLQKTKYAGVYFTEDTQTRVKTYVARIVLAGIIDTEVVVGHSNDQHRTNAAIAYQRRLELIQEAKN”, the “soluble fraction (log2)” value was -4.
In the case of “HMSKLSLREIVKKFEEQIIQLHKRGLNHSEISREIVTKNSIDLGDSHIDSLRRAISVHLQTP”, the “soluble fraction (log2)” value is reported as -0.755.
In the case of “HMSKPIREVAYETLKNAIVTGEIPAGSRIVETEYAERMHISRTPLREALRKLERDGLVEYVVRRGVVVRAF”, the “soluble fraction (log2)” value is reported as -1.63.
In the case of “HMSKPTLTLKSNAYPYNLNGERINNYLGFTYIKKGATLNYQGSKRINGQNYYYIGDGAYIKNTTVGSTNN”, the “soluble fraction (log2)” value is reported as -1.23.
For “HMSKQDRRIRRTRRLLKESLIQLMQEKEFMNISVREVTERADLNRGTFYLHYQDTRHLLQDIENETL”, the “soluble fraction (log2)” value was -3.3.
In the case of “HMSKQEFVDRLRVSLSGKISPASVEDNARYYEDYINTHIRLGEPEEDVLEGLGDPRLIARSIVAAESV”, the “soluble fraction (log2)” value is reported as -0.0989.
For “HMSKQLGFKIKTARRKLNISQGDLSKKLEISPSYLNLIESGKRKVSTDLLMKASEILNLDLKKL”, the “soluble fraction (log2)” value was -0.966.
For “HMSKQQFLDELAARLREEGAELLVAENLNFYRSYIEEEVAKGRSEEEVLAELGNPALIARSILDAAGF”, the “soluble fraction (log2)” value was -0.219.
In the case of “HMSKSIELMNEIKKYIEEYYLQYRQSPSTTKIAEAVGIARGTAYKYLVEMSERNMIEYDGQEISTEVTRKY”, the “soluble fraction (log2)” value is reported as -1.43.
For “HMSKSKSEIDKDPHFWSSLFQRIGEGESLRKIAKDSKIPKSTLWAWIRNDPQLALRYSEAQQ”, the “soluble fraction (log2)” value was 0.0521.
For “HMSLAATLSPREIDTVRLIAVGSSNKEIARQLGIAETTVKIHVQHILRKLNLTSRVQVAVFANAEGII”, the “soluble fraction (log2)” value was -0.931.
With “HMSLAISGRNQLHGIIEEVRSDGLLSQIYLRVGDQVLTAVITRDAVAELKLKRGDTAVAIMKSTEVMIARE” the “soluble fraction (log2)” value was 0.38.
In the case of “HMSLDLERAVALLSLPRPVGNHPEDGELVEAGIGRYGPYVKHGSKYANLPDADEVFTIGMNRAVEVLAAK”, the “soluble fraction (log2)” value is reported as -0.109.
For “HMSLDTASDKELLGLIVSEPIATRVLDAFRTLDATLFRTTPAELAAAAGVSSEHAQKIKAVAEIAARMLKP”, the “soluble fraction (log2)” value was -0.343.
For “HMSLEDYVIIKNKTVKVYETEFDGAPVVTSSSVGQKLILVEYNDNFAKILYRAKDGLDYVGYIKRKDVYVR”, the “soluble fraction (log2)” value was -2.55.
In the case of “HMSLLLTPREASVWASEYLGKKVTSNNIIYLLNYGKIANHSTDLKENLIDKNELKIYYDSTIKSQKH”, the “soluble fraction (log2)” value is reported as -0.755.
In the case of “HMSLLQDRQRHEALAALGYYRGSVSAAWGAASVEALKAAQAALGVEVDGKWGPKTEDVIQAALGT”, the “soluble fraction (log2)” value is reported as -0.272.
For “HMSLLQTRQRHEALAALGFFKGDVAAEWSAASTEALRAAQASLGIRVDGKWGPQTEDAIGKALAERQG”, the “soluble fraction (log2)” value was 0.0108.
With “HMSLLTIDELSQATGVSVRTLRYYVSSGVLDKPTGETRNARYGTHHLDQVRNIKKLQEEGLTLNRILEIKK” the “soluble fraction (log2)” value was -2.14.
In the case of “HMSLNHDIWVQELKEKRSGYGISQSRLAIAAGMTRQYLSDIETGKVLPSAERKAAITEALERFNPD”, the “soluble fraction (log2)” value is reported as -0.348.
With “HMSLNNAHNTIFPRIIELMEMKQLENVLLIGGGIIPRKDIESLESSGVTKLYGPGTPVKETIEFITNWVK” the “soluble fraction (log2)” value was -0.216.
In the case of “HMSLPKVLVPTDITVSQLAKYLEVDAIAIVKKLFGLGVVASLNQRLENEQMQLLGQEFGKDIIFTEN”, the “soluble fraction (log2)” value is reported as -1.39.
For “HMSLPTSDWKRALSLFDEALSLPPDARDAWLAHTIAREPAVSPLLQKLLGAHRRVETNDILATLPR”, the “soluble fraction (log2)” value was -0.534.
For “HMSLQNTMANFAGGVLVLFLKPFKAGDYIVTKDGEGTVASIGLVYTTLLTIENKRIVIPNSSISNSPITN”, the “soluble fraction (log2)” value was 0.159.
With “HMSLRGEKTYDEAHQKLIKSAVELFKNPLVSPEKITVSQIAKHAGVSVATAYNHFPENKLDIYGSIF” the “soluble fraction (log2)” value was -0.203.
In the case of “HMSLRVIEIFGTPQQMSARISLMDGSVTDVKVGQSIPGTSYKVASITGNGVWIQNGTAVSYTHL”, the “soluble fraction (log2)” value is reported as -2.41.
With “HMSLSDADVERLLEVAIDIESLEEREGLYYQANESEPYSGWGKLMYDSGQVERLVPYKDGRWEGLWTIW” the “soluble fraction (log2)” value was -1.07.
For “HMSLSISSLVFFRKNAGLTQADIATAMSITQSAVARLEKRLLSDSDVTLKTLERYAEAVGIRMHVDFEP”, the “soluble fraction (log2)” value was 0.01.
In the case of “HMSLSKEEFETISKQVLELAGAGPIPVKELLQKMERTSKEKAWKVIEFLQAEDKIVPDATGRIQL”, the “soluble fraction (log2)” value is reported as -0.727.
With “HMSLSKQETEFLTTFSASGKRVFTYQQATDYWQSKVAATNVLGRLVRKGWLQRLERGLYMIIPLEAGPERF” the “soluble fraction (log2)” value was -1.71.
In the case of “HMSLSPAATRSRGYPSVLLTMKAPERLVSAAGPDRRAYLVGTDPLVIELPGVKGLYKVDPDQIVFE”, the “soluble fraction (log2)” value is reported as -0.0024.
